According to US20220333113:

These sequences were tested against T1, RIG-I CTD (aa 792-925) (Homo sapiens) (UniProt O95786) (assay: EMSA). Settings: J = 5-(N-3-phenylpropylcarboxyamide)-2'-deoxyuridine (PPdU) at every J (n in listing); SB18T0.01 (5 mM MgCl2) + 20% glycerol, 1 mM DTT, 37 C.
T1 sequence: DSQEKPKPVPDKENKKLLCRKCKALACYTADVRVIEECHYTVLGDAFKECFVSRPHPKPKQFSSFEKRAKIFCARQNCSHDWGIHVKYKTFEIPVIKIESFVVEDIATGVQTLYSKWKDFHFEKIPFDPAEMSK
“ATCTCTGTGTCATGTGTTTTAATGTCAGTTTAATGATGAGGGACGGGCAG [14832-55_3]” was tested, and the Kd was 0.0072 nM.

Same assay, conditions: J = PPdU at every J; SB18T0.01 + 20% glycerol, 1 mM DTT, 37 C
Work on “CTGTGTCATGTGTTTTAATGTCAGTTTAATGATGAGG [14832-55_12]” yielded a Kd of 0.34 nM. With “ATCTCTGTGTCATGTGTTTTAATGTCAGTTTAATGATG [14832-55_9]” the Kd was 0.15 nM. “ATCTCTGTGTCATGTGTTTTAATGTCAGTTTAATGATGAGGGAC [14832-55_7]” showed a Kd of 0.011 nM. Sequence “ATCTCTGTGTCATGTGTTTTAATGTCAGTTTAATG [14832-55_10]” has a Kd of 1.5 nM. Sequence “TCTGTGTCATGTGTTTTAATGTCAGTTTAATGATGAG [14832-55_14]” has a Kd of 0.066 nM. For “TGTGTCATGTGTTTTAATGTCAGTTTAATGATGAGG [14832-55_13]”, the Kd was 4.3 nM. “TCTGTGTCATGTGTTTTAATGTCAGTTTAATGATGAGGGACGGGCAG [14832-55_4]” gave a Kd of 0.084 nM. “TCTGTGTCATGTGTTTTAATGTCAGTTTAATGATGA [14832-55_15]” gave a Kd of 0.063 nM. Sequence “TCTGTGTCATGTGTTTTAATGTCAGTTTAATGATGAGG [14832-55_11]” has a Kd of 0.068 nM. “ATCTCTGTGTCATGTGTTTTAATGTCAGTTTAATGATGAGGGACGGG [14832-55_6]” showed a Kd of 0.018 nM. In the case of “GTGTCATGTGTTTTAATGTCAGTTTAATGATGAGGGACGGGCAG [14832-55_5]”, the Kd is reported as 36 nM.

What follows are sequences tested against T2, RIG-I WT full-length (Homo sapiens) (UniProt O95786) (assay: filter). Settings: J = 5-(N-3-phenylpropylcarboxyamide)-2'-deoxyuridine (PPdU) at every J (n in listing); SB18T0.01 (5 mM MgCl2) + 1 mM DTT, 37 C.
T2 sequence: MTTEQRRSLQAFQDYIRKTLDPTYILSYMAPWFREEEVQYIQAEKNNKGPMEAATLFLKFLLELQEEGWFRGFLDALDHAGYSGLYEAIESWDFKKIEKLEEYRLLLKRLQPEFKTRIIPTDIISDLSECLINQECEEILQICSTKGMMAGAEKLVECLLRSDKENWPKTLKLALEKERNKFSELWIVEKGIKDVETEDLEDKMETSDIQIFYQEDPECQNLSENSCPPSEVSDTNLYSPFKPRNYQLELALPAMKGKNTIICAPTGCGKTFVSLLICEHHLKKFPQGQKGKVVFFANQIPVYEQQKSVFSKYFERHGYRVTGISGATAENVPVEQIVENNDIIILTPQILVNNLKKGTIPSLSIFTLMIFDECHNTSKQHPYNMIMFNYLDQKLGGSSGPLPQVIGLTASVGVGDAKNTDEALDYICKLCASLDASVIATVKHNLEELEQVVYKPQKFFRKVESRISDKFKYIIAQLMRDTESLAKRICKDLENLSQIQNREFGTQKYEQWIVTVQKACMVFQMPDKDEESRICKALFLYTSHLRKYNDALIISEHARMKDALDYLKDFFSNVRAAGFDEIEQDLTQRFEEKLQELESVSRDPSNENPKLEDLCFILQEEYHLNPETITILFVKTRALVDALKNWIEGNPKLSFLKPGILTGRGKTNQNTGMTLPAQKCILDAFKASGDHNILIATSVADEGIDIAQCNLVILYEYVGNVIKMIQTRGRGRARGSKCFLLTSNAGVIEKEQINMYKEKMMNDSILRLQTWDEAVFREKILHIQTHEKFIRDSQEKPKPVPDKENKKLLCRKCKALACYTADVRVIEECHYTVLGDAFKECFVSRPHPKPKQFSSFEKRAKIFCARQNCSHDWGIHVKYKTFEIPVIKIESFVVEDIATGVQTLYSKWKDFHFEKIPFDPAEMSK
In the case of “ATCTCTGTGTCATGTGTTTTAATGTCAGTTTAATGATGAGGGACGGGCAG [14832-55_3]”, the Kd is reported as 0.024 nM.

Same assay, conditions: J = PPdU at every J; SB18T0.01 + 1 mM DTT, 37 C
“ATCTCCGGGAACACTGTCTGATTAATGTCTTGTAAGCGGGTTTTCGGCAG [14833-10_3]” gave a Kd of 12 nM.
